The target in test [1] is low-density lipoprotein receptor-related protein (LRP), purified (human) (UniProt Q07954). Briefly: homologous displacement on LRP-coated wells.
Target sequence in this assay (Q07954 20-4544): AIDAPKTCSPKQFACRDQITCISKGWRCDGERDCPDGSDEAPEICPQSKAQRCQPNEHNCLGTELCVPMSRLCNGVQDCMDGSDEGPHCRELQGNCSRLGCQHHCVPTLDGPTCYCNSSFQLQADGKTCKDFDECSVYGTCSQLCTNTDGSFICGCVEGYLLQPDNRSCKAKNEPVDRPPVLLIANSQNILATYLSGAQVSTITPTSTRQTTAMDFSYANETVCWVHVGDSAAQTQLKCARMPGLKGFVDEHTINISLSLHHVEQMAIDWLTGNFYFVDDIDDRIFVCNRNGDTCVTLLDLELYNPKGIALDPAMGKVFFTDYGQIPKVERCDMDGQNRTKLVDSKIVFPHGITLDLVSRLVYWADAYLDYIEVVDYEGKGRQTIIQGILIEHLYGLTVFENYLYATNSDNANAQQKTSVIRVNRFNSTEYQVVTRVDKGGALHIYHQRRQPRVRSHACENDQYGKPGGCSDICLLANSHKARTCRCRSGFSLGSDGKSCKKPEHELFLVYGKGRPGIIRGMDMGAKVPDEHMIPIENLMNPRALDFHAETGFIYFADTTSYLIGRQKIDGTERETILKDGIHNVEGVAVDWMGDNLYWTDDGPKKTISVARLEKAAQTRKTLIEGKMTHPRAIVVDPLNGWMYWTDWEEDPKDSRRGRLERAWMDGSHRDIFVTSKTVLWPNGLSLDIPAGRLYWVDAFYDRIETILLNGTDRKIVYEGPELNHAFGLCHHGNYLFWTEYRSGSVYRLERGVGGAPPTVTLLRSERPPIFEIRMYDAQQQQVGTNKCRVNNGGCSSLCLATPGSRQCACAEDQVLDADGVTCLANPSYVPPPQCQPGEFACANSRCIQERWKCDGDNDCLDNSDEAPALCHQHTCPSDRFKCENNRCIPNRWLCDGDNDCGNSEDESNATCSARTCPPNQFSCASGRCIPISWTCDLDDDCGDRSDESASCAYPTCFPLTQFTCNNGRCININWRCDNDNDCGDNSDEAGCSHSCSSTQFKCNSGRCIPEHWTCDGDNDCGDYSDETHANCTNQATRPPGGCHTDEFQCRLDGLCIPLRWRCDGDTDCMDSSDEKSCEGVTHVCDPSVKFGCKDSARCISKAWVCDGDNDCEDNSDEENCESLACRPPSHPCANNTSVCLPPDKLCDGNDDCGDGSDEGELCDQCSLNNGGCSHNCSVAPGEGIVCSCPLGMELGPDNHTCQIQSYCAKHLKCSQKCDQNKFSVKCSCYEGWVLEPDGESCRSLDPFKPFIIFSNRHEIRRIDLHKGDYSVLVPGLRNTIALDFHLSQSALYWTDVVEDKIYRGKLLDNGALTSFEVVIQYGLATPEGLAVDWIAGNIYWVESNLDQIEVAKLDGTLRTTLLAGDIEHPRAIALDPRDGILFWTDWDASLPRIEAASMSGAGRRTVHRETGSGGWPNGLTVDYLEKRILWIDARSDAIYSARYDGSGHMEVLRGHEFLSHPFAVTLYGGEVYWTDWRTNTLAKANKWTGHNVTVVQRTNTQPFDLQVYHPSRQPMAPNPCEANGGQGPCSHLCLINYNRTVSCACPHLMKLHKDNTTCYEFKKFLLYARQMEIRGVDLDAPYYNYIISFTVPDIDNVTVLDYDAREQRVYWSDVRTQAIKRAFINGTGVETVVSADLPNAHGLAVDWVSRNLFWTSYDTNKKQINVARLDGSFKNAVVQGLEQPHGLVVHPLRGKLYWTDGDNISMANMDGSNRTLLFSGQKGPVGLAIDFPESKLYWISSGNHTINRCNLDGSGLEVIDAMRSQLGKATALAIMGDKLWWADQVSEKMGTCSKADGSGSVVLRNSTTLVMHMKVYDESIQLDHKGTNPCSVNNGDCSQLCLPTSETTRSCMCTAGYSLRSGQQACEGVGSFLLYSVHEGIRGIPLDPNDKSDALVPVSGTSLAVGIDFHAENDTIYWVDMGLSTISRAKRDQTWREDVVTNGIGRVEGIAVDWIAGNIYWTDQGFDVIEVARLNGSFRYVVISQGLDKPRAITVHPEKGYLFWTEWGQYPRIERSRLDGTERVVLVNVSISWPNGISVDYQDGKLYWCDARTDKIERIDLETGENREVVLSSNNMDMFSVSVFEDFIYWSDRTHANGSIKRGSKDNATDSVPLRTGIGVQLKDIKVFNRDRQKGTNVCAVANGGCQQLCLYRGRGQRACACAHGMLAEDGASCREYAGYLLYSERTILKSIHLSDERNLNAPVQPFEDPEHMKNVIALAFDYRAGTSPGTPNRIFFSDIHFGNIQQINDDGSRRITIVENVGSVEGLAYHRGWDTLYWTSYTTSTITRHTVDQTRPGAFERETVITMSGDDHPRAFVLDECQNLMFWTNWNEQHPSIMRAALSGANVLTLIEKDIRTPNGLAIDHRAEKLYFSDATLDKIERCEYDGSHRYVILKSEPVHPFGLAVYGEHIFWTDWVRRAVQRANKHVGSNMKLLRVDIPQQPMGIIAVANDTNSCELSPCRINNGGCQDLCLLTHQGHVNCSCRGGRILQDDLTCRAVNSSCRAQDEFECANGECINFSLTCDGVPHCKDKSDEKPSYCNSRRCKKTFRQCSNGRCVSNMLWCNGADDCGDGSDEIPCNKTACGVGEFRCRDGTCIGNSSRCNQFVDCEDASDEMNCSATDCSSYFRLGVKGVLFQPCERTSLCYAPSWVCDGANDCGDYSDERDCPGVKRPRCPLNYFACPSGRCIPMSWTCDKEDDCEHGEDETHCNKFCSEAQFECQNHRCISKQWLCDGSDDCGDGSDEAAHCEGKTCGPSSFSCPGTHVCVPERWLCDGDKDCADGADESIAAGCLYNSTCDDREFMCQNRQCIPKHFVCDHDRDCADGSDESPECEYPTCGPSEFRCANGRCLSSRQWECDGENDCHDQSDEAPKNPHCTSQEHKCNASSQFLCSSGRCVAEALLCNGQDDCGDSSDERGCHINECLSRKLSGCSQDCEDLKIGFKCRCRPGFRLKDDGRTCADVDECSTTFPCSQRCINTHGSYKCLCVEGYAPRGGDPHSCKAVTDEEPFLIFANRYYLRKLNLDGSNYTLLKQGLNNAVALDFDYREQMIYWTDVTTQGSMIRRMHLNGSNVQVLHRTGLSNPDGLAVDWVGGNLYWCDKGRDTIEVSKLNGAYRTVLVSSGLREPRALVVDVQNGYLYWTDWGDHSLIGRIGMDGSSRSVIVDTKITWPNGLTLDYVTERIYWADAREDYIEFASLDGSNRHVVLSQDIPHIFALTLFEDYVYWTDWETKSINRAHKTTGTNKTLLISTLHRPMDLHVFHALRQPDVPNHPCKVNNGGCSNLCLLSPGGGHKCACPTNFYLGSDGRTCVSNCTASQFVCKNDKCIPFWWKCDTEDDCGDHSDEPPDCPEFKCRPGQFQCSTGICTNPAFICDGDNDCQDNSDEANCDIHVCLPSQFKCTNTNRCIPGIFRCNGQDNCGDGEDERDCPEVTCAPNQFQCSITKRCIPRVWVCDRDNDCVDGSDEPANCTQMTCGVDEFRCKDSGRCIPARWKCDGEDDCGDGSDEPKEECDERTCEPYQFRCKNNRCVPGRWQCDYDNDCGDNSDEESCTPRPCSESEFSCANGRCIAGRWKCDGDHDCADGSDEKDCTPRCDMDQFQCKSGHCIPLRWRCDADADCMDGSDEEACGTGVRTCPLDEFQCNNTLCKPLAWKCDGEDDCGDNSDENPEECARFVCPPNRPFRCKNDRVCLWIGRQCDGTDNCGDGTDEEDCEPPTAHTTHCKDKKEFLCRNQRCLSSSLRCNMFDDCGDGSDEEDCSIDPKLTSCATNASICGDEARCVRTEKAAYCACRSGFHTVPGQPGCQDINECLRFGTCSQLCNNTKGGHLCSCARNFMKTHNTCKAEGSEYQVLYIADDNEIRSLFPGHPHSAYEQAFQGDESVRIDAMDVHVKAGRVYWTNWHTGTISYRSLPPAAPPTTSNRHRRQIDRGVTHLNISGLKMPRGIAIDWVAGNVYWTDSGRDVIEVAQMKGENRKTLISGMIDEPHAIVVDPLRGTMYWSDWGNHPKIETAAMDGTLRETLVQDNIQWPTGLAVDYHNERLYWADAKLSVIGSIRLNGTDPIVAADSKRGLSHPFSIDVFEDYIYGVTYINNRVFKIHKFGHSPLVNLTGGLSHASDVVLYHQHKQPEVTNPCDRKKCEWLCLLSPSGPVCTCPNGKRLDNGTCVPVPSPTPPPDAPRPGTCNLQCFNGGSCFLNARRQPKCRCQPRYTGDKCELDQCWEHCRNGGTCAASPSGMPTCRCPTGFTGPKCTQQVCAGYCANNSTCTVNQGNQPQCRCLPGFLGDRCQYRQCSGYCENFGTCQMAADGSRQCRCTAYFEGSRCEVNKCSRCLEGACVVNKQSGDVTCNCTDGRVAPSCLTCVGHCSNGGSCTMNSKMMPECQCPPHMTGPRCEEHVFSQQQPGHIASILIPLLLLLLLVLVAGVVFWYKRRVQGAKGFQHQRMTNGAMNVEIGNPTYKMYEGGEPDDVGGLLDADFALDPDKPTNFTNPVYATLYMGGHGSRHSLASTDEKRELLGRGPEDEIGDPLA
Test [2] shares this target. Briefly: homologous displacement of ^125I-fVIII (1 nM) by unlabeled fVIII on LRP-coated wells, LIGAND fit.
Target sequence in this assay (Q07954 20-4544): as above
The target is the same in test [3]. Briefly: homologous ligand displacement: 125I-fVIII (1 nM) on LRP-coated microtiter wells, competitor unlabeled fVIII.
Target sequence in this assay (Q07954 20-4544): as above
Test [4] deals with A1/A3-C1-C2 heterodimer of factor VIII, plasma-derived (human) (UniProt P00451). The test is described as follows: cell-based or functional assay.
The target of test [5] is low-density lipoprotein receptor-related protein (LRP), purified (human) (UniProt Q07954). Briefly: SPR, BIAcore 3000, one-site model, KD = koff/kon.
Target sequence in this assay (Q07954 20-4544, form in doubt): as the sequence (Q07954 20-4544) above
For test [6] the target is unchanged. The test is described as follows: SPR, BIAcore 3000.
Target sequence in this assay (Q07954 20-4544, form in doubt): as the sequence (Q07954 20-4544) above

Some results are limits rather than exact numbers.

Usually Kd stands for the concentration at which binding is half-saturated. The low end stands for tighter binding, the high end for weaker binding. On to “factor VIII purified from therapeutic concentrates (Method M, American Red Cross), P00451 20-1667; P00451 1668-2351”, for which the percent of binding competed by an excess of unlabeled fVIII in test [1] was greater than 90%. In test [2], this substance displayed a Kd of 116 nM. Also, the IC50 (read off the curve) in test [3] is 100 nM.

For the substance “recombinant A2 mutant #2 (Lys-377 to Ala) (from UniProt P00451 392-759)”, in test [4], the Activity of reconstituted FVIIIa (% of wt activity) (% of wt activity) was 365. The Kd in test [5] was 18 nM.

Consider “recombinant A2 mutant #3 (His-378 to Ala) (from UniProt P00451 392-759)”, for which the Activity of reconstituted FVIIIa (% of wt activity) (% of wt activity) in test [4] was found to be 417. In addition, the Kd in test [5] was 19 nM.

The substance “recombinant A2 mutant #4 (Lys-380 to Ala) (from UniProt P00451 392-759)” registered an Activity of reconstituted FVIIIa (% of wt activity) (% of wt activity) in test [4] of 291. Also, in test [5], the Kd came to 47 nM.

The substance “recombinant A2 mutant #5 (Lys-466 to Ala) (from UniProt P00451 392-759)” gave a fold decrease of affinity against wt-A2 in test [6] of 28 fold. Further, in test [4], the Activity of reconstituted FVIIIa (% of wt activity) (% of wt activity) came to 130. The substance also displayed a Kd in test [5] of 600 nM.

In the case of “recombinant A2 mutant #6 (Arg-471 to Ala) (from UniProt P00451 392-759)”, the fold decrease of affinity against wt-A2 in test [6] was determined as 19 fold. Also, the Activity of reconstituted FVIIIa (% of wt activity) (% of wt activity) in test [4] worked out at 34.6. For the same substance, the Kd in test [5] worked out at 400 nM.

For the substance “recombinant A2 mutant #7 (Arg-484 to Ala) (from UniProt P00451 392-759)”, the fold decrease of affinity against wt-A2 in test [6] came out at 15 fold. Besides, the Activity of reconstituted FVIIIa (% of wt activity) (% of wt activity) in test [4] turned out to be 64.9. The Kd in test [5] worked out at 320 nM.

Source of the values: patent US20070232789A1.
